Measurements from patent publication US20240084003A1 (SIMCERE ZAIMING PHARMACEUTICAL, published 2024).

B1: F2.173.9 (antibody, human IgG1, lambda, V domains shown)
VH: EVQLVESGGDLVKPGESLKLSCEASGFTFSNYAMSWVRQTPDRRLEWVATISSIGSFTYYSDSVKGRFTISRDNVKSTLHLQMNNLKSGDTAIYFCARLGVYFDSWGQGTTLTVSS
VL: QLVLTQSSSASFSLGASAKLTCTLSSQHSTYTIEWYQQQPHKPPKFVMEIKKDGSHYTGDGIPDRFSGSSSGADRYLSISNIQPEDETIYICGVSDMIKDQFVYVFGGGTKVTVLG
notes: Human-murine chimeric IgG1, lambda
B2: F1.250.16 (antibody, human IgG1, kappa, V domains shown)
VH: QVQLQQSGAEQVKPGASVKMSCKASGYTFTTYPIEWMKQNHGESLDWIGNIHPYNDDTEYNEKFKGKATLTVEKSSNTVFLELSRLTSDDSAVYYCVRGDYYNSRYWYFDVWGTGTTVTVSS
VL: DIVMTQSQKFMSTTVGDRVSITCKAGQNVRTAVAWYQQKPGQSPKLLIYSASTRYIGVPERFTGSGSGTDFTLTITNMQSEDLADYFCQQYSSFPLTFGTGTKLELKR
notes: Human-murine chimeric IgG1, kappa
B3: F1.172.13 (antibody, human IgG1, kappa, V domains shown)
VH: QVTLKESGPGILQSSQTLSLTCSFSGFSLSTSGMGVSWIRQPSGKGLEWLAHIYWDDDKRYNPSLKSRLTISKDTSRNQVFLKITSVDTADTATYYCARAPPPNWDEYYFDYWGQGTTLTVSS
VL: DIQMTQSPASLSASVGETVTITCRASGNIHNSLAWYQQKQGKSPQLLVHNAKTLADGVPSRFSGSGSGTQYSLKINSLQPEDFGSYYCQHFWSTPPFGGGTKLEIKR
notes: as for B2
B4: F2.151.13 (antibody, human IgG1, lambda, V domains shown)
VH: QVHLQQPGTELMKPGASVKLSCKATGYTFRDYWLEWVKQRPGHGLEWIGEILPGSGNAYYNEKFKGKATFTADTSSNTAYMQLSSLTTEDSAIYYCARVYSNWYFDAWGKGTTVTVSS
VL: QAVVTQESALTTSPGETVTLTCRSSTGAVTTSNYANWVQEKPDHLFTGLIGGTNNQAPGVPARFSGSLIGDKAALTISGAQTEDEAIYFCALWFSNHWVFGGGTKLTVLG
notes: as for B1

What follows are binders tested against T1, human CD22-ECD-His protein (human, UniProt P20273 20-687) (assay: ELISA, Ab 0.0001 nM).
T1 construct: Made in house in HEK293E; also called hCD22-ECD-His; recombinant human CD22-ECD His protein; not shown: His tag
T1 sequence: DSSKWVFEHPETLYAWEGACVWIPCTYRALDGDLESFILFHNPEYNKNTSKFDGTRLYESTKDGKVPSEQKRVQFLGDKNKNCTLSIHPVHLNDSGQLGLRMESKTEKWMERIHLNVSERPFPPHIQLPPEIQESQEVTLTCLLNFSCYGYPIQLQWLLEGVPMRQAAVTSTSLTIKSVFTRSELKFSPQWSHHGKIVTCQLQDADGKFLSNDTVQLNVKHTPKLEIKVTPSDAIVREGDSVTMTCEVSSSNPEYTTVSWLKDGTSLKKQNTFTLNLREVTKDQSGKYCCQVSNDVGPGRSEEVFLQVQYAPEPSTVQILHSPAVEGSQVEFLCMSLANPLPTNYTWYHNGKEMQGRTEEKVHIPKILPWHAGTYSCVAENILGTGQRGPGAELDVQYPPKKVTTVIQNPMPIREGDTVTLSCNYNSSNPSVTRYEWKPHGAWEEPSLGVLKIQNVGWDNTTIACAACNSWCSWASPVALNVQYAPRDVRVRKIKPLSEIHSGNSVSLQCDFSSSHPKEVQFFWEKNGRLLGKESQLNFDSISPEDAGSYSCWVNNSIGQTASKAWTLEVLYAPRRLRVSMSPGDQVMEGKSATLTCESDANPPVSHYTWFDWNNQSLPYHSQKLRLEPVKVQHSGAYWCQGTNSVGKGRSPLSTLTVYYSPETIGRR
Description: (§1) In order to detect the binding activity of CD22 human-murine chimeric antibodies to CD22 protein, the purified human CD22-ECD-His protein obtained in Example 2 was diluted with PBS to a final concentration of 2 μg/mL, and then added to 96-well ELISA plate at 100 μl/well. The plate was sealed with plastic film and incubated overnight at 4° C., the plate was washed 2 times with PBS the next day, and then a blocking solution [PBS+2% (w/w) BSA] was added for blocking at room temperature for 2 hours. […] After incubation at 37° C. for 2 hours, the plate was washed 3 times with PBS. HRP (horseradish peroxidase)-labeled secondary antibody (purchased from Sigma, catalog number: A0170) was added, and incubated at 37° C. for 2 hours, and the plate was washed 5 times with PBS. TMB substrate was added at 50 μl/well, and incubated at room temperature for 30 minutes, then a stop solution (1.0 N HCl) was added at 50 μl/well.
B1 gave an OD450 of 0.32 OD450.
In the case of B2, the OD450 is reported as 0.21 OD450.
Binder B3 has an OD450 of 0.17 OD450.
With B4 the OD450 was 0.2 OD450.

These binders were tested against T1, human CD22-ECD-His protein (assay: ELISA, Ab 10.00 nM).
Description: as §1
B1 gave an OD450 of 1.97 OD450.
Work on B2 yielded an OD450 of 2.56 OD450.
B3 was tested, and the OD450 was 2.51 OD450.
For B4, the OD450 was 2.6 OD450.

What follows are binders tested against T2, human CD22 domain1-4-His (human, UniProt P20273 20-425) (assay: ELISA, human CD22 domain1-4-His coated).
T2 construct: also called hCD22 domain1-4-His; not shown: His tag
T2 sequence: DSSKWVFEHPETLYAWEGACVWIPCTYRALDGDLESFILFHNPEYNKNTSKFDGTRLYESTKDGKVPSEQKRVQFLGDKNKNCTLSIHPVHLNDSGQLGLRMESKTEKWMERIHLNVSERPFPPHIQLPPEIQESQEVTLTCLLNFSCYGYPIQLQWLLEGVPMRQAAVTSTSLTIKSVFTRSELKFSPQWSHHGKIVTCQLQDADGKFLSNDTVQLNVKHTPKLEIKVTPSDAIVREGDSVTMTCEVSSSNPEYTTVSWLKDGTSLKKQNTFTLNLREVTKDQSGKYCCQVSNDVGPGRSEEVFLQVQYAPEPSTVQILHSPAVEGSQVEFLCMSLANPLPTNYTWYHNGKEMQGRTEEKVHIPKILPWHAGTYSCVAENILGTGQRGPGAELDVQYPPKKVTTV
B4: no binding (tested: 100 nM).

The binders below were run against T1, human CD22-ECD-His protein (assay: ELISA, human CD22-ECD-His coated).
Description: as §1
B1 was tested, and the “EC50 (read off the curve)” value was ~0.03 nM.
B2 was tested, and the “EC50 (read off the curve)” value was ~0.02 nM.
In the case of B3, the “EC50 (read off the curve)” value is reported as ~0.03 nM.
With B4 the “EC50 (read off the curve)” value was ~0.04 nM.

These binders were tested against T1, human CD22-ECD-His protein (assay: ELISA, Ab 0.01 nM).
Description: as §1
B1 gave an OD450 of 1.52 OD450.
B2 was tested, and the OD450 was 2.24 OD450.
B3 showed an OD450 of 2.11 OD450.
B4 gave an OD450 of 2.1 OD450.

The binders below were run against T3, murine CD22 protein (ACROBiosystems, SI2-M52Ha) (murine, UniProt P35329 22-708) (assay: ELISA, murine CD22-ECD-His coated).
T3 construct: extracellular domain; also called murine CD22-ECD; murine CD22-ECD-His
T3 sequence (looked up): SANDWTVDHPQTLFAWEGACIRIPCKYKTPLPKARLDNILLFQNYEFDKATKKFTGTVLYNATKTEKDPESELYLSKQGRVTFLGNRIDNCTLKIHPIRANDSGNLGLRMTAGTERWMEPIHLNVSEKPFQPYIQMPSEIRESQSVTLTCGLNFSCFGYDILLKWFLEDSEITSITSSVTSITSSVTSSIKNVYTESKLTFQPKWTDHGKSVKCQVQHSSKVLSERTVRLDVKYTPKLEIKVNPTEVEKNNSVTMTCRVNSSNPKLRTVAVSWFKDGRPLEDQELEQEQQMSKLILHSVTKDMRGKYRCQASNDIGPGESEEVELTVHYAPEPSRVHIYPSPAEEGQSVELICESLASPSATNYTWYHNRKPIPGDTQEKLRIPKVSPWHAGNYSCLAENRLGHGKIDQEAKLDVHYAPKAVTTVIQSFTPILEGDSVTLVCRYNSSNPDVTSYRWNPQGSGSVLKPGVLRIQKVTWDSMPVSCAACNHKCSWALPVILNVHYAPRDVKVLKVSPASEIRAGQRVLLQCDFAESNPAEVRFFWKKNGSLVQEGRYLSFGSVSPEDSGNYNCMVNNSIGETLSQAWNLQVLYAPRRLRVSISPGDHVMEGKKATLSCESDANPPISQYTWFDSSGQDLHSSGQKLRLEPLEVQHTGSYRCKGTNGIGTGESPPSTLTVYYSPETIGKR
Description: as §1
(§2) In order to detect the species cross-binding activity of the chimeric antibodies, an ELISA plate was coated with commercial murine CD22 protein (ACROBiosystems, catalog number: SI2-M52Ha) and monkey CD22 protein (ACROBiosystems, catalog number: SI2-R52Ha), respectively, and the ELISA detection was performed according to the method in Example 5.1.
B1: no binding (tested: 100 nM).
B2: no binding (tested: 100 nM).
B3: no binding (tested: 100 nM).
B4: no binding (tested: 100 nM).

The binders below were run against T1, human CD22-ECD-His protein (assay: ELISA, Ab 0.001 nM).
Description: as §1
In the case of B1, the OD450 is reported as 0.65 OD450.
Work on B2 yielded an OD450 of 0.86 OD450.
B3 gave an OD450 of 0.74 OD450.
B4 gave an OD450 of 0.64 OD450.

What follows are binders tested against T1, human CD22-ECD-His protein (assay: ELISA, Ab 0.00001 nM).
Description: as §1
B1 gave an OD450 of 0.18 OD450.
With B2 the OD450 was 0.12 OD450.
For B3, the OD450 was 0.1 OD450.
With B4 the OD450 was 0.1 OD450.

What follows are binders tested against T4, monkey CD22 protein (ACROBiosystems, SI2-R52Ha) (monkey (rhesus monkey in paragraph 148), UniProt H9G1X2 18-686) (assay: ELISA, monkey CD22-ECD-His coated).
T4 construct: extracellular domain; also called monkey CD22-ECD; monkey CD22-ECD-His
T4 sequence: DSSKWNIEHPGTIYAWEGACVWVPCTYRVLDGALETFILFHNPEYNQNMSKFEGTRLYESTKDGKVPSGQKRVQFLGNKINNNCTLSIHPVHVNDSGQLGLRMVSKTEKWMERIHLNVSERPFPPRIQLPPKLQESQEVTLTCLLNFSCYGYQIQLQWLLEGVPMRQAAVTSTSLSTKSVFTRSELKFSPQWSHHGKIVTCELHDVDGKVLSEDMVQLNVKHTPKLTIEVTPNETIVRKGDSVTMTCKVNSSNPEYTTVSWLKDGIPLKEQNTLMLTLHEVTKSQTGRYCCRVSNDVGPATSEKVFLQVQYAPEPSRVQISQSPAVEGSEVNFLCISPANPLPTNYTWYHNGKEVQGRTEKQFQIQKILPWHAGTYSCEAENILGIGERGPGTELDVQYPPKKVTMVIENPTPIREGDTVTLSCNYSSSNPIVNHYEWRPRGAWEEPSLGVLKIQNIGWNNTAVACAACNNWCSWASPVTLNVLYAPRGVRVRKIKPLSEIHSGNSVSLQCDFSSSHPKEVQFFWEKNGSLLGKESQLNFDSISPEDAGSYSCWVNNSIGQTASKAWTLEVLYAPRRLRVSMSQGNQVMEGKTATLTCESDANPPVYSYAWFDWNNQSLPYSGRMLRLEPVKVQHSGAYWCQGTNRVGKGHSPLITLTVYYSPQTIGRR
Description: as §1, §2
In the case of B1, the “EC50 (read off the curve)” value is reported as 0.1 to 1 nM.
For B2, the “EC50 (read off the curve)” value was ~0.02 nM.
For B3, the “EC50 (read off the curve)” value was ~0.03 nM.

What follows are binders tested against T1, human CD22-ECD-His protein (assay: ELISA, Ab 0.10 nM).
Description: as §1
B1 was tested, and the OD450 was 1.93 OD450.
B2 showed an OD450 of 2.58 OD450.
Binder B3 has an OD450 of 2.53 OD450.
B4 gave an OD450 of 2.55 OD450.

What follows are binders tested against T1, human CD22-ECD-His protein (assay: ELISA, Ab 100.00 nM).
Description: as §1
With B1 the OD450 was 2.32 OD450.
Work on B2 yielded an OD450 of 3.07 OD450.
With B3 the OD450 was 2.87 OD450.
B4 gave an OD450 of 3.28 OD450.

Each binder was assayed against T5, human CD22 domain5-7-His (human, UniProt P20273 414-687) (assay: ELISA, human CD22 domain5-7-His coated).
T5 construct: also called hCD22 domain5-7-His; not shown: His tag
T5 sequence: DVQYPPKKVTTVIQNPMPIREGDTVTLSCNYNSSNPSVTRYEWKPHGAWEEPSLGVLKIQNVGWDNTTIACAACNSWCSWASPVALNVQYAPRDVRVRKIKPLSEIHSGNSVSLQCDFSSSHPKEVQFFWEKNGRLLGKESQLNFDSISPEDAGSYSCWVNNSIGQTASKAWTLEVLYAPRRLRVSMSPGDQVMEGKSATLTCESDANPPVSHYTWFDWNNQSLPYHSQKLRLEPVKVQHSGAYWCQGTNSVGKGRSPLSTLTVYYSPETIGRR
B1: no binding (tested: 100 nM).
B2: no binding (tested: 100 nM).
B3: no binding (tested: 100 nM).
With B4 the “EC50 (read off the curve)” value was ~0.05 nM.
